Data from IntAct's records for PubMed 20668449.

B1: Regulator of chromosome condensation (Homo sapiens), P18754 (parent)
chain: MSPKRIAKRRSPPADAIPKSKKVKVSHRSHSTEPGLVLTLGQGDVGQLGLGENVMERKKPALVSIPEDVVQAEAGGMHTVCLSKSGQVYSFGCNDEGALGRDTSVEGSEMVPGKVELQEKVVQVSAGDSHTAALTDDGRVFLWGSFRDNNGVIGLLEPMKKSMVPVQVQLDVPVVKVASGNDHLVMLTADGDLYTLGCGEQGQLGRVPELFANRGGRQGLERLLVPKCVMLKSRGSRGHVRFQDAFCGAYFTFAISHEGHVYGFGLSNYHQLGTPGTESCFIPQNLTSFKNSTKSWVGFSGGQHHTVCMDSEGKAYSLGRAEYGRLGLGEGAEEKSIPTLISRLPAVSSVACGASVGYAVTKDGRVFAWGMGTNYQLGTGQDEDAWSPVEMMGKQLENRVVLSVSSGGQHTVLLVKDKEQS
B2: N-terminal Xaa-Pro-Lys N-methyltransferase 1 (Homo sapiens), Q9BV86 (parent)
chain: MTSEVIEDEKQFYSKAKTYWKQIPPTVDGMLGGYGHISSIDINSSRKFLQRFLREGPNKTGTSCALDCGAGIGRITKRLLLPLFREVDMVDITEDFLVQAKTYLGEEGKRVRNYFCCGLQDFTPEPDSYDVIWIQWVIGHLTDQHLAEFLRRCKGSLRPNGIIVIKDNMAQEGVILDDVDSSVCRDLDVVRRIICSAGLSLLAEERQENLPDEIYHVYSFALR

Variants of: B1
Conditions: with ntm1a_human NTMT1, Q9BV86

| Variant | effect of a mutation on the interaction |
| --- | --- |
| MDPKRIAKRRSPPADAIPKSKKVKVSHRSHSTEPGLVLTLGQGDVGQLGLGENVMERKKPALVSIPEDVVQAEAGGMHTVCLSKSGQVYSFGCNDEGALGRDTSVEGSEMVPGKVELQEKVVQVSAGDSHTAALTDDGRVFLWGSFRDNNGVIGLLEPMKKSMVPVQVQLDVPVVKVASGNDHLVMLTADGDLYTLGCGEQGQLGRVPELFANRGGRQGLERLLVPKCVMLKSRGSRGHVRFQDAFCGAYFTFAISHEGHVYGFGLSNYHQLGTPGTESCFIPQNLTSFKNSTKSWVGFSGGQHHTVCMDSEGKAYSLGRAEYGRLGLGEGAEEKSIPTLISRLPAVSSVACGASVGYAVTKDGRVFAWGMGTNYQLGTGQDEDAWSPVEMMGKQLENRVVLSVSSGGQHTVLLVKDKEQS [S2D] | disrupting interaction strength |
| MVPKRIAKRRSPPADAIPKSKKVKVSHRSHSTEPGLVLTLGQGDVGQLGLGENVMERKKPALVSIPEDVVQAEAGGMHTVCLSKSGQVYSFGCNDEGALGRDTSVEGSEMVPGKVELQEKVVQVSAGDSHTAALTDDGRVFLWGSFRDNNGVIGLLEPMKKSMVPVQVQLDVPVVKVASGNDHLVMLTADGDLYTLGCGEQGQLGRVPELFANRGGRQGLERLLVPKCVMLKSRGSRGHVRFQDAFCGAYFTFAISHEGHVYGFGLSNYHQLGTPGTESCFIPQNLTSFKNSTKSWVGFSGGQHHTVCMDSEGKAYSLGRAEYGRLGLGEGAEEKSIPTLISRLPAVSSVACGASVGYAVTKDGRVFAWGMGTNYQLGTGQDEDAWSPVEMMGKQLENRVVLSVSSGGQHTVLLVKDKEQS [S2V] | decreasing interaction |

Variants of: B1
Conditions: with ntm1a_human NTMT1, Q9BV86
Remark: another data set of the same source

| Variant | effect of a mutation on the interaction |
| --- | --- |
| MSPQRIAKRRSPPADAIPKSKKVKVSHRSHSTEPGLVLTLGQGDVGQLGLGENVMERKKPALVSIPEDVVQAEAGGMHTVCLSKSGQVYSFGCNDEGALGRDTSVEGSEMVPGKVELQEKVVQVSAGDSHTAALTDDGRVFLWGSFRDNNGVIGLLEPMKKSMVPVQVQLDVPVVKVASGNDHLVMLTADGDLYTLGCGEQGQLGRVPELFANRGGRQGLERLLVPKCVMLKSRGSRGHVRFQDAFCGAYFTFAISHEGHVYGFGLSNYHQLGTPGTESCFIPQNLTSFKNSTKSWVGFSGGQHHTVCMDSEGKAYSLGRAEYGRLGLGEGAEEKSIPTLISRLPAVSSVACGASVGYAVTKDGRVFAWGMGTNYQLGTGQDEDAWSPVEMMGKQLENRVVLSVSSGGQHTVLLVKDKEQS [K4Q] | disrupting interaction |

Variants of: B2
Conditions: with rcc1_human RCC1, P18754

| Variant | effect of a mutation on the interaction |
| --- | --- |
| MTSEVIEDEKQFYSKAKTYWKQIPPTVDGMLGGYGHISSIDINSSRKFLQRFLREGPNKTGTSCALDCGAGIGRITKRLLLPLFREVDMVDITEDFLVQAKTYLGEEGKRVRNYFCCGLQDFTPEPDSYDVIWIQWVIGHLTDQHLAEFLRRCKGSLRPNGIIVIKDKMAQEGVILDDVDSSVCRDLDVVRRIICSAGLSLLAEERQENLPDEIYHVYSFALR [N168K] | disrupting interaction |
| MTSEVIEDEKQFYSKAKTYWKQIPPTVDGMLGGYGHISSIDINSSRKFLQRFLREGPNKTGTSCALDCGAGIGRITKRLLLPLFREVDMVDITEDFLVQAKTYLGEEGKRVRNYFCCGLQDFTPEPDSYDVIWIQWVIGHLTDQHLAEFLRRCKGSLRPNGIIVIKDNMAQEGVILDDVKSSVCRDLDVVRRIICSAGLSLLAEERQENLPDEIYHVYSFALR [D180K] | disrupting interaction |
